Assay results reported in patent US20200246472A1.
Square brackets hold non-standard residues; d marks the D form. Ends that are not written are not given here. Dmt = Cc1cc(O)cc(C)c1C[C@H](N)C(=O)O

B1: CM-58 (peptide)
peptide: [Dmt]PWFQFQFK-NH2
modifications: N-terminus assumed
SMILES: Cc1cc(O)cc(C)c1C[C@H](N)C(=O)N1CCC[C@H]1C(=O)N[C@@H](Cc1c[nH]c2ccccc12)C(=O)N[C@@H](Cc1ccccc1)C(=O)N[C@@H](CCC(N)=O)C(=O)N[C@@H](Cc1ccccc1)C(=O)N[C@@H](CCC(N)=O)C(=O)N[C@@H](Cc1ccccc1)C(=O)N[C@@H](CCCCN)C(N)=O
B2: CM-56 (peptide)
peptide: [Dmt]PFFQFQFK-NH2
modifications: N-terminus assumed
SMILES: Cc1cc(O)cc(C)c1C[C@H](N)C(=O)N1CCC[C@H]1C(=O)N[C@@H](Cc1ccccc1)C(=O)N[C@@H](Cc1ccccc1)C(=O)N[C@@H](CCC(N)=O)C(=O)N[C@@H](Cc1ccccc1)C(=O)N[C@@H](CCC(N)=O)C(=O)N[C@@H](Cc1ccccc1)C(=O)N[C@@H](CCCCN)C(N)=O

What was measured:
Assay in all cases: binding test (Ki), method not described
DOR = target: DOR
KOR = target: KOR
MOR = target: MOR
Sequence of MOR (P35372 whole entry): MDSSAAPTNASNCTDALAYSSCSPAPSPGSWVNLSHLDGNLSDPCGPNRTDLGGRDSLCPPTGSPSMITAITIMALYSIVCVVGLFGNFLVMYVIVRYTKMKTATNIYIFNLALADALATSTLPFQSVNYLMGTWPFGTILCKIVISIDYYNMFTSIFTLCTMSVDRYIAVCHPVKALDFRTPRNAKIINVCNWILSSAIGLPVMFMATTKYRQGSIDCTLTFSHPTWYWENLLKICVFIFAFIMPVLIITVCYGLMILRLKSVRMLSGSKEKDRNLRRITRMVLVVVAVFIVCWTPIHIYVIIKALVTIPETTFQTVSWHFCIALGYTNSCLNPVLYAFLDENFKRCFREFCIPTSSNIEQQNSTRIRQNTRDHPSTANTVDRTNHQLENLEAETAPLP

Binder	Ki (DOR)	Ki (KOR)	Ki (MOR)
B1	15 nM	120 nM	7.5 nM
B2	176 nM	337 nM	65 nM
